Patent US6416738B1, “Pretargeting methods and compounds” (NeoRx Corporation, priority 1973, dated 2002)

Biological target: T1, NR-LU-10 antigen (Homo sapiens, UniProt P16422)
T1 construct: Positive NR-LU-10 tissue reactivity indicates NR-LU-10 antigen expression by such tissues; from tissue; host or cells: carcinoma and normal tissue specimens
T1 sequence (P16422 24-314): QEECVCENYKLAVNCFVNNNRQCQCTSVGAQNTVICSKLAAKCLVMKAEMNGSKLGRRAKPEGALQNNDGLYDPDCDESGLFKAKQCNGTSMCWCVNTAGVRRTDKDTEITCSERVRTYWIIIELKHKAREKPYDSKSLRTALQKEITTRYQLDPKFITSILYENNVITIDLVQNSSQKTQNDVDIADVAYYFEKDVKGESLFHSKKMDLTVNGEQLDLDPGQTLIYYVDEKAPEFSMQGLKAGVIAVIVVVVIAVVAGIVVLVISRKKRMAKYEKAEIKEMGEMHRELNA
Assay: NR-LU-10 reactivity with normal tissues (Table B)
Type: binding
Source text: Radioimmunoassays, immunoprecipitation and Fluorescence-Activated Cell Sorter (FACS) analysis were used to obtain reactivity profiles of NR-LU-10. The NR-LU-10 target antigen was present on either fixed cultured cells or in detergent extracts of various types of cancer cells. For example, the NR-LU-10 antigen is found in small cell lung, non-small cell lung, colon, breast, renal, ovarian, pancreatic, and other carcinoma tissues. Tumor reactivity of the NR-LU-10 antibody is set forth in Table A, while NR-LU-10 reactivity with normal tissues is set forth in Table B. The values in Table B are obtained as described below. Positive NR-LU-10 tissue reactivity indicates NR-LU-10 antigen expression by such tissues.
The tissue specimens were scored in accordance with three reactivity parameters: (1) the intensity of the reaction; (2) the uniformity of the reaction within the cell type; and (3) the percentage of cells reactive with the antibody. These three values are combined into a single weighted comparative value between 0 and 500, with 500 being the most intense reactivity. This comparative value facilitates comparison of different tissues. Table B includes a summary reactivity value, the number of tissue samples examined and the number of samples that reacted positively with NR-LU-10.

[1] = Salivary Gland: Acinar Epithelium
[2] = Salivary Gland: Duct Epithelium
[3] = Spleen: Lymphoid Follicle-Central
[4] = Spleen: Lymphoid Follicle-Peripheral
[5] = Spleen: Trabecular Smooth Muscle
[6] = Stomach: Muscularis Mucosa/Externa
[7] = Stromal Tissue: Arteriolar Smooth Muscle
[8] = Stromal Tissue: Fibrous Connective Tissue
[9] = Stromal Tissue: Mast Cells/Eosinophils
[10] = Tonsil: Lymphoid Follicle-Central
[11] = Tonsil: Lymphoid Follicle-Peripheral
[12] = Urinary Bladder: Mucosal Epithelium
[13] = Vagina/Cervix: Epithelial Glands
[14] = Vagina/Cervix: Squamous Epithelium

B1: NR-LU-10: 150 kilodalton IgG2b monoclonal antibody recognizing an approximately 40 kilodalton glycoprotein antigen expressed on most carcinomas (antibody, V domains shown)
VH: EVQLQQSGAELVKPGASVRLSCTASGFNIKDTYMHWVIERPEQGLEWIGRIDPANGNTKCDPKFQGKATITADTSSNTAYLQLSSLTSEDTAVYYCSREVLTGTWSLDYWGQGTSVTVSS
VL: DIQMIQSPSSMFASLGDRVSLSCRASQGIRGNLDWYQQKPGGTIKLLIYSTSNLNSGVPSRFSGSGSGSDYSLTISSLDSEDFADYYCLQRNAYPYTFGGGTKLEIK
- Summary Reactivity (Nerve: Endoneurium): 0
- # Pos/Exam (Nerve: Neurolemma): 0/2
- Summary Reactivity (Nerve: Neurolemma): 0
- # Pos/Exam (Nerve: Neuron): 0/2
- Summary Reactivity (Nerve: Neuron): 0
- # Pos/Exam (Nerve: Perineurium): 0/2
- Summary Reactivity (Nerve: Perineurium): 0
- # Pos/Exam (Ovary: Corpus Luteum): 0/3
- Summary Reactivity (Ovary: Corpus Luteum): 0
- # Pos/Exam (Ovary: Eipthelium): 1/1
- Summary Reactivity (Ovary: Eipthelium): 270
- # Pos/Exam (Ovary: Granulosa): 1/3
- Summary Reactivity (Ovary: Granulosa): 400
- # Pos/Exam (Ovary: Serosa): 0/3
- Summary Reactivity (Ovary: Serosa): 0
- # Pos/Exam (Ovary: Theca): 0/3
- Summary Reactivity (Ovary: Theca): 0
- # Pos/Exam (Oviduct: Epithelium): 1/1
- Summary Reactivity (Oviduct: Epithelium): 500
- # Pos/Exam (Oviduct: Smooth Muscle): 0/3
- Summary Reactivity (Oviduct: Smooth Muscle): 0
- # Pos/Exam (Pancreas: Acinar Cell): 3/3
- Summary Reactivity (Pancreas: Acinar Cell): 500
- # Pos/Exam (Pancreas: Duct Epthelium): 3/3
- Summary Reactivity (Pancreas: Duct Epthelium): 500
- # Pos/Exam (Pancreas: Islet Cell): 3/3
- Summary Reactivity (Pancreas: Islet Cell): 500
- # Pos/Exam (Peritoneum: Mesothelium): 0/1
- Summary Reactivity (Peritoneum: Mesothelium): 0
- # Pos/Exam (Pituitary: Adenohypophysis): 2/2
- Summary Reactivity (Pituitary: Adenohypophysis): 500
- # Pos/Exam (Pituitary: Neurohypophysis): 0/2
- Summary Reactivity (Pituitary: Neurohypophysis): 0
- # Pos/Exam (Placenta: Trophoblasts): 0/3
- Summary Reactivity (Placenta: Trophoblasts): 0
- # Pos/Exam (Prostate: Concretions): 0/3
- Summary Reactivity (Prostate: Concretions): 0
- # Pos/Exam (Prostate: Glandular Epithelium): 3/3
- Summary Reactivity (Prostate: Glandular Epithelium): 400
- # Pos/Exam (Prostate: Smooth Muscle): 0/3
- Summary Reactivity (Prostate: Smooth Muscle): 0
- # Pos/Exam (Rectum: Lymph Node): 0/2
- Summary Reactivity (Rectum: Lymph Node): 0
- # Pos/Exam (Rectum: Mucosal Epithelium): 0/2
- Summary Reactivity (Rectum: Mucosal Epithelium): 0
- # Pos/Exam (Rectum: Muscularis Externa): 0/1
- Summary Reactivity (Rectum: Muscularis Externa): 0
- # Pos/Exam (Rectum: Muscularis Mucosa): 0/3
- Summary Reactivity (Rectum: Muscularis Mucosa): 0
- # Pos/Exam (Rectum: Nerve Ganglia): 0/3
- Summary Reactivity (Rectum: Nerve Ganglia): 0
- # Pos/Exam [1]: 3/3
- Summary Reactivity [1]: 500
- # Pos/Exam [2]: 3/3
- Summary Reactivity [2]: 500
- # Pos/Exam (Skin: Apocrine Glands): 3/3
- Summary Reactivity (Skin: Apocrine Glands): 280
- # Pos/Exam (Skin: Basal Layer): 3/3
- Summary Reactivity (Skin: Basal Layer): 33
- # Pos/Exam (Skin: Epithelium): 1/3
- Summary Reactivity (Skin: Epithelium): 10
- # Pos/Exam (Skin: Follicle): 1/1
- Summary Reactivity (Skin: Follicle): 190
- # Pos/Exam (Skin: Stratum Corneum): 0/3
- Summary Reactivity (Skin: Stratum Corneum): 0
- # Pos/Exam (Spinal Cord: Axons, Myelinated): 0/2
- Summary Reactivity (Spinal Cord: Axons, Myelinated): 0
- # Pos/Exam (Spinal Cord: Microglial): 0/2
- Summary Reactivity (Spinal Cord: Microglial): 0
- # Pos/Exam (Spinal Cord: Neurons): 0/2
- Summary Reactivity (Spinal Cord: Neurons): 0
- # Pos/Exam [3]: 0/3
- Summary Reactivity [3]: 0
- # Pos/Exam [4]: 0/3
- Summary Reactivity [4]: 0
- # Pos/Exam [5]: 0/3
- Summary Reactivity [5]: 0
- # Pos/Exam (Stomach: Chief Cells): 3/3
- Summary Reactivity (Stomach: Chief Cells): 290
- # Pos/Exam (Stomach: Mucosal Epithelium): 3/3
- Summary Reactivity (Stomach: Mucosal Epithelium): 367
- # Pos/Exam [6]: 0/3
- Summary Reactivity [6]: 0
- # Pos/Exam (Stomach: Parietal Cells): 3/3
- Summary Reactivity (Stomach: Parietal Cells): 290
- # Pos/Exam (Stomach: Smooth Muscle): 0/3
- Summary Reactivity (Stomach: Smooth Muscle): 0
- # Pos/Exam (Stromal Tissue: Adipose): 0/63
- Summary Reactivity (Stromal Tissue: Adipose): 0
- # Pos/Exam [7]: 0/120
- Summary Reactivity [7]: 0
- # Pos/Exam (Stromal Tissue: Endothelium): 0/120
- Summary Reactivity (Stromal Tissue: Endothelium): 0
- # Pos/Exam [8]: 0/120
- Summary Reactivity [8]: 0
- # Pos/Exam (Stromal Tissue: Macrophages): 0/117
- Summary Reactivity (Stromal Tissue: Macrophages): 0
- # Pos/Exam [9]: 0/86
- Summary Reactivity [9]: 0
- # Pos/Exam (Testis: Interstitial Cells): 0/3
- Summary Reactivity (Testis: Interstitial Cells): 0
- # Pos/Exam (Testis: Sertoli Cells): 3/3
- Summary Reactivity (Testis: Sertoli Cells): 93
- # Pos/Exam (Thymus: Hassal's Epithelium): 3/3
- Summary Reactivity (Thymus: Hassal's Epithelium): 147
- # Pos/Exam (Thymus: Hassal's Keratin): 3/3
- Summary Reactivity (Thymus: Hassal's Keratin): 333
- # Pos/Exam (Thymus: Lymphoid Cortex): 0/3
- Summary Reactivity (Thymus: Lymphoid Cortex): 0
- # Pos/Exam (Thymus: Lymphoid Medulla): 3/3
- Summary Reactivity (Thymus: Lymphoid Medulla): 167
- # Pos/Exam (Thyroid: C-Cells): 0/3
- Summary Reactivity (Thyroid: C-Cells): 0
- # Pos/Exam (Thyroid: Colloid): 0/3
- Summary Reactivity (Thyroid: Colloid): 0
- # Pos/Exam (Thyroid: Follicular Epithelium): 3/3
- Summary Reactivity (Thyroid: Follicular Epithelium): 500
- # Pos/Exam (Tonsil: Epithelium): 1/3
- Summary Reactivity (Tonsil: Epithelium): 500
- # Pos/Exam [10]: 0/3
- Summary Reactivity [10]: 0
- # Pos/Exam [11]: 0/3
- Summary Reactivity [11]: 0
- # Pos/Exam (Tonsil: Mucus Gland): 1/1
- Summary Reactivity (Tonsil: Mucus Gland): 300
- # Pos/Exam (Tonsil: Striated Muscle): 0/3
- Summary Reactivity (Tonsil: Striated Muscle): 0
- # Pos/Exam (Umbilical Cord: Epithelium): 0/3
- Summary Reactivity (Umbilical Cord: Epithelium): 0
- # Pos/Exam [12]: 3/3
- Summary Reactivity [12]: 433
- # Pos/Exam (Urinary Bladder: Serosa): 0/1
- Summary Reactivity (Urinary Bladder: Serosa): 0
- # Pos/Exam (Urinary Bladder: Smooth Muscle): 0/3
- Summary Reactivity (Urinary Bladder: Smooth Muscle): 0
- # Pos/Exam (Uterus: Endometrial Epithelium): 3/3
- Summary Reactivity (Uterus: Endometrial Epithelium): 500
- # Pos/Exam (Uterus: Endometrial Glands): 3/3
- Summary Reactivity (Uterus: Endometrial Glands): 500
- # Pos/Exam (Uterus: Smooth Muscle): 0/3
- Summary Reactivity (Uterus: Smooth Muscle): 0
- # Pos/Exam [13]: 1/1
- Summary Reactivity [13]: 500
- # Pos/Exam (Vagina/Cervix: Smooth Muscle): 0/2
- Summary Reactivity (Vagina/Cervix: Smooth Muscle): 0
- # Pos/Exam [14]: 1/1
- Summary Reactivity [14]: 200
